Columns and labels:
Assay in all cases: phage adsorption assay; 10^6 pfu of χ phage added to 10 ml LB cultures of motile cells at OD600 2.0, shaken ten minutes at 37°C; cells pelleted at 15,000 x g and phage left in the supernatant titered by plaque assay; adsorption = (1 - pfu supernatant with cells/pfu control without cells) * 100%
[1] = biological target: ser. Enteritidis FliC with both D2 domains and D3 replaced by their ser. Typhimurium equivalents (strain FliC11) (Salmonella enterica serotype Enteritidis P125109 | Salmonella enterica serotype Typhimurium 14028s) (UniProt Q06972)
[2] = biological target: ser. Typhimurium FliC with D3 replaced by D3 from ser. Enteritidis FliC (strain FliC6) (Salmonella enterica serotype Typhimurium 14028s | Salmonella enterica serotype Enteritidis P125109) (UniProt P06179)
[3] = biological target: wild type ser. Typhimurium FliC (strain FliC1) (Salmonella enterica serotype Typhimurium 14028s) (UniProt P06179)
[4] = biological target: ser. Typhimurium FliC with a deletion of D3 (strain FliC3) (Salmonella enterica serotype Typhimurium 14028s) (UniProt P06179)

Substance: Bacteriophage χ (Chi)
- percentage of phage particles adsorbed after ten minutes [1]: 48%
- percentage of phage particles adsorbed after ten minutes [2]: 67%
- percentage of phage particles adsorbed after ten minutes [3]: 99%
- percentage of phage particles adsorbed after ten minutes [4]: 95%

Reference: article PMC10399903
